A short description of the series: label from the status in PepcDB records.
Consider “MSNHSRDEPSTAPKTDQWYDLVLGSSAKDDSSHKFCTLRYEFKPASIDKNRSGSMHKKKDNRVSVEFQNNQPGKPKVTFEGSSEDYKESDAVLFFDGEKFRLERLHRAVTQLRHVRTPGESAAASQSAVPVEHRLSPVGRAAKSPQVNRSLLPDVPVEVERIEIGKPENSAEPANTGNVPATSPVEDKNDDGDEHQEIDLVEIFGSFTPENDNAEKENADGGEYVESLNKQLSMTEEEIADVDDDSGGEGEKGLNAAEALRAQVNAEVQKSQTSSSSSSSGSSSGSDSDGRSKSVSSGSGSGGQSSSGSSSRGSGGSDDEDEVNSV”, for which the protein production result is reported as “failed”.

Take “MSNKEGSGGFRKRKHDNFPHNQRREGKDVNSSSPVMLAFKSFQQELDARHDKYERLVKLSRDITVESKRTIFLLHRITSAPDMEDILTESEIKLDGVRQKIFQVAQELSGEDMHQFHRAITTGLQEYVEAVSFQHFIKTRSLISMDEINKQLIFTTEDNGKENKTPSSDAQDKQFGTWRLRVTPVDYLLGVADLTGELMRMCINSVGNGDIDTPFEVSQFLRQVYDGFSFIGNTGPYEVSKKLYTLKQSLAKVENACYALKVRGSEIPKHMLADVFSVKTEMIDQEEGIS”: the protein production entry is on record as “failed”. For “MSNKGSSDLRLLLSTLVISGLVAGLAYWQLSQHWTRSPDQNAGSPLHTPTSKWQKIALAMTLRGHEDEVNAIALSPDGNFLVSAGDDRRLYFWNLATGTALGQAKGHTDWIYALVMTPDGQTVISGSKDKTIKLWGVGDRQLQATLSGHQDFVNGLALSPDGRTLASASYDHTVKLWNVPSRQEITTLKANEGIMLSVAISRDGRFLATGGVDKLIRIWDLPSRRLLRTLEGHTSDVNSLAFTPDSSQLVSGSDKDGIKLWNLTTGELQQQFGTEGGQVFSVAVSPDGSTLASGHGDQTVKLWSLSGQLLRNLKGHSGAVYSVVFGQDQLISASEDKTIKVWRLFPETP” the value was “failed”; for “MSNMVEVPIFIAILSFIVMCIGELLAYYSVSLKYKYEFEAISFGFIFGVATLILIPKSYSNMFVLYVILGMITVYLIEKYLAYCPLSKKYCVECDNLEENRIKFIYPISFFIHTFIDGLIIAVSYISEIGLPLYLAILMHKLPAGFVLISPLKGVYKNPLYPGVFVSFGTVLGTIVGLVTLKDVSTKILLAFSGGVFLGAFLMLAPHIYEHKEEKTFLYILLGYILVGIIALH”, “failed”; for “MSNNEPSSLKQSIKLAWPISLQSILVTMLGMSDIMMVGHLGDTAVASVGLGNRIQFVFLIILAGLASGVGTLSAQHFGAGQIGVIRQIIVKTLVIAAGILLPILLITFLFAGNIMGIATTDPSVINTGTSYLWLTMPSLIFVVVVMIFENALRGLGQVIFPMFISIIAIITNIILNYWLIKGGLGIEPMGVIGAALATLLARALHALLILTYLAKVKHSIFPTTFFCADFYNKQAWTKLLTLVWPMMLSFGVWSLGTFVYQLIYGRIGTQELAVMSLLAPIEGLLVSFFFGFASACAILVGQRLGKNEFSNAWSLAKNYAISAPIITFLLALILLQYQYLVFMPFSNLSSETITLSQEILVLICFGTCLKVFNMTIAMGILRAGGDNKYCMFIDISGMWIISIPLTFMAAFYFMLPLYWVALIAYSEEIIKAVMFIFRMKTRHWLKNLTAESMA”, “failed”. As for “MSNPLLSIIIPTHNRPHLVTHAVQSALEQTMEDLEVIVVDDASTQPIDLPSHPRLRLIRLLQSHGGAGARNVGLEAALGRWVAFLDDDDRLLPQMAEVSLEALSQTSLPAPVAVISGLEEVNAQGKVLGQRLPPPLRPRGVHFFLEEIEPDQSYNTKQTLVVEREVLQKIGGWDEEMRSRVHSELFLRLNPACSIIGLPIITYQLYNHGGQRVSRNPMLRQESFLRLVHKHKSLFQAHPQMFAKLVYEHANKCYEIGLKREAFYNLFWSMQLDPLQIAPRVVTRVYQSRLKFVIRSYKLKH”, the protein production result is given as “failed”. The same measure for “MSNQFIQYLNRAASGSIPGFVIMKLLMLELPNLMGLLLPLGFYVALLLAYGRLYAESEMTVLRACGYGPRQLLKHSFAMATVVLVVVAIVMIWASPVIAVERIKLIRSTGIKTLIQTIMPGRFHAINSGQQIFYVQSMNRDHSQAEQIFMAKHSVQDNRLLWDVLWADKAFAEVNPQTGEEYIVLQNGKEYQGVPGHADYQIAEFASYKSKLPNPTVVMHDDARTAKTRDLWPLNNHDLKKAAELQWRISIPLMVLTLTLVAVPLSRVSPRSGKYSKLLPAIIIYIFYANFMFVSRDAIATGKIPWWIGMWWVHVAVAILGILFIWRNQVKLA”: “failed”; for “MSNSRELGDLLEQIRLGEDSQLEFKRVVFENDKIKGPNGDSLSQEIAAFANAIGGRLILGVDDKTRDVVGIPLDRLDAVSIWLENCVHDRIKPEPTIYLRRRLVPDRSGTEHAVLVIDIPRSLYVHLAPGGYFRRQGSSKHELPPNELLRLMQSRQRAGTLGFDEMPVLGCTQANFDAALYGRFLGTTDEPEELRLRKLKLLVPGEPGEEWASVAGVLMATATPSDWLPQAYVQCVHYAGTEKTAQEQLDAQDIQGPLDQQIRQAAAFVLRGMRTAARKNLGRIDVPQFDPEAVFEAIANAGAHRDYSISGAPVQVHLFTDRLEITSPGALPNSQSVESIALRTATRNELLTNLLARCPVEMEGVGRSRVMEKRGEGVPQILNRSERLSGHRPKFELLGENALRVTLYAADPETSPLLNEAGRGSVGLPHAGFARDDG”: “failed”. As for “MSNSSIDIGVPSLPPPFSIGTISIPTFSRQHLFLKIILHYNLVERYSRQLIVLGLGIQQRLNELKILIAGCGALGTAVAELLARLGVKELTIVDADVVDITNLHRVHLFDENDVGKPKAEVCAKKISLINSSIKINYIIDILDEENVERLISDKDYVFDALDSLYYKLLLNDAIVKLGKILIYGGINGEYGSAKLIDPSQTSCLSCFIDYSDQDEIGNSCDVIGTTPLIVELTATLQVNLMLNHLRGNPDYSLFYIDSRELKIERINIEKNSQCKTCVLNEYPFLYQKISKPKCGIFRTNMKIPELDEPKVFKNLGNVTLCYPSIGCFEKRGR”, the protein production result is given as “failed”. In the case of “MSNTYLASMALMGALVVAVVTWMVRGRGWYHYSPGSSTSGRSPTSDRESRFETYADQPMVWVGAFAVLVVGLLVGVVASISGPVETQSIAGLAVAVVGGAGLCGYLLFGVYLSATRRGHPRSLAVAESATVAGVLFLIAVGFQLVGA”, the protein production result is “failed”.

Turning to “MSNVLTEIDSQYPYMTKNEKKIAKFILNSPQKVIKMRSQDLASLLDISTSSVIRFSKKITDGGFHDLKINISKYVPKASSIYNVELMNNESTESLRTKLHTRTTRALNHANNELN”, the protein production entry is “not failed”. As to “MSNVTAEQKKEVKGRGFLPSRDGEHFAARIITVNGVINASQAKKIAEAAEKFGNGQLAFTTRLTVELPGVKFEDIEALSEFIASENLITGGTGSRVRPVVACKGTVCVHGLADTQALAAEIHEEFYKNWYDVKLPHKFKIGVGGCPNNCIKPDLNDLGIVGQRVPDYDSELCVGCKKCAVVEVCPVKAAKLTDKGKLEIDSNLCNNCGKCIESCNFDSIEEKESGYKVYIGGKWGKSVRPGTQIDRLFSKEELMTLIEKAILLFREQGNTGERFGITIDRIGADKFIEMLLSDEVLERKEEILEALLHLTGGAVCLEHHHHHH”, the protein production result is “failed”. The same measure for “MSPARARLTAPIVLLMSVATGLAVASNYYAQPLLHTIGAEFALTTATAGAIVTVAQLSYAVGLILLVPLGDLYERRTLIALMTALSAVGLLLSAFSPGIGWLMLGTAVTGLLSVVAQVLVPFAATLAEPHERGKVVGAVMSGLLLGILLARTIAGALADLGSWRTVYWVAAILMLLMSMALWRVLPRSVNPTRLSYPRLLASIVQLYAQEPLLRARSVLGALLFAAFSMLWTPLTFLLSGPNYGYSNTTIGLFGLAGAIGAYGANRFGRLNDRGQGNRSTRQGLLLLASWPLLAWGAHHVAPLLAGVLALDLAIQAVHVTNQSAIYRLRPEARSRLTAGYMTSYFLGGAAGSLLSAWIYAHAGWLGVTAAGALTSLAALLYGCLARSARIPETTPAPAIA”: “failed”; for “MSPLALLFLTLFNSVLGLSILFPILGPLGRALGLTEVQVGLFSTGYALMQFLLSPYWGRRSERGRKPVLLVGILGFAASFLLFGVFALLGERGLVPPGLLFFLLLLARLLGGAFSSATLPTAQAYVADVTGRENRTAGMALLGAAFGLAVILGPALGAGLAALFGLLAPVFFSAGIALLNALFVYLVLPESRPRGQEAGARLSPFDPRVFPLLLLGLALNLSSVALEQTIAFYFQDRLLLGGVETAQKVGLALVLYGVVAVFVQGVLVRKTGWPPRVLLSLGLPLGILGFVLLVYAKTFWALALGLALQGAGQGLALPGVTAALSLAVGEGEQGLVAGLNSSAQALGRMLGPIVGTGLYRLAPEGPYVLGASLLLLALLFLPALFRRARL”: “failed”. Consider “MSPMAPVARAKRKFILLLIKPSHYDDDGYVLRWWRGIIPSNSLATLYGIAADVAARQVLGADVEFEIEAMDEFNTRIDIPALLDRFARNGNFGLVGLVGVQSNQYPRALDIARPFRASGVPVVMGGFHVSGCLAMLDGKAIGLDDCRDMGVAMFAGEAEGGRFDGVLQDAAAGQLQPVYNFLNDLPGIEGVPAPYLPLATVKRTLGLSTSVDAGRGCPYQCSFCTIINVQGRKSRYRTPDDIEAMVRRNWAQGISKYFITDDNFARNKDWEAILDRLIQIRETEDIPLGFMIQVDTLCHKIPRFIEKAKRAGVTRVFIGLENINPANLLTANKRQNKITEYRAMLLAWKDHGIITLAGYILGFPADTPASIRADIDIIKRELPIDVMEFFCLTPLPGSEDHQTLWRAGVAMDPDLNNYDVEHVCTAHPLMSRPEWEAIYREAWSRYYTPDHIETLLRRAAATGIKISSLVKLLAIFSTAIRVENVHPLQCGLFRQRHPSERRPGLAAPNALLFWPRFALDSVRKTGVILAAFAKVAAIGVRVARDPQRLAYTDQALTPVSDDDADSLDLFTQSASAKQAVAHQKKVFDLTHGTP”, for which the protein production entry was “failed”. As to “MSPPGQHYAQADAPQRPVLVQESSYLQLSSEAAEFVTQCQICGKPCQLADEPLWTTLATTIPSTIGAMAVSSAPHLPSGSFEWLTAGRVDPGSRVVVLCPTVAHCRAVASHGADVLAVHRDPDTAEKLNRIPGVMAVCGSPESLPLNSSSFDAVLVHQGFHELAPGLALPEIARVLRPGSVLGVSWLVRDDTVPWVKRLAALLRTVDENAMSGDYGTESVHELISSKYFPEDEHTTKRLWVPVNRDSLVAMAAARPAVRALDSDARSNVLTKVAALADDSAGTSGLRLPYQLECWRAWVDHDELTTPIRPHDDGLTITL”, the protein production result is on record as “failed”.

For the origin of these results see a protein production outcome set (Wang et al. 2014).
